This data set addresses T1, beta secretase (Homo sapiens, UniProt P56817).
T1 construct: made in house; host or cells: CHO-K1 cells (secreted, glycosylated)
The data set is described as follows: beta secretase enzymatic activity assayed by HPLC analysis of the products. Conditions: CHO cell derived human beta secretase cleaved at F39-V40 by HIV-1 protease and purified, compared with non-treated beta secretase. It is filed as biochemical. The method, then:
Purified HIV-1 protease treated (and non-treated) beta secretase were assayed for activity by HPLC analysis of the products.

B1: HIV-1 protease treated beta secretase: CHO cell expressed recombinant human beta secretase proteolytically cleaved with HIV protease (N-terminus V40), used for crystallization (protein)
chain: VEMVDNLRGKSGQGYYVEMTVGSPPQTLNILVDTGSSNFAVGAAPHPFLHRYYQRQLSSTYRDLRKGVYVPYTQGKWEGELGTDLVSIPHGPNVTVRANIAAITESDKFFINGSNWEGILGLAYAEIARPDDSLEPFFDSLVKQTHVPNLFSLQLCGAGFPLNQSEVLASVGGSMIIGGIDHSLYTGSLWYTPIRREWYYEVIIVRVEINGQDLKMDCKEYNYDKSIVDSGTTNLRLPKKVFEAAVKSIKAASSTEKFPDGFWLGEQLVCWQAGTTPWNIFPVISLYLMGEVTNQSFRITILPQQYLRPVEDVATSQDDCYKFAISQSSTGTVMGAVIMEGFYVVFDRARKRIGFAVSACHVHDEFRTAAVEGPFVTLDMEDCGYNIPQTDESHHHHHH
For the molecule B1, the “more enzymatic activity than non-treated (unprocessed) beta secretase” value is reported as 10-20%.

The values above are taken from US7384773B1, “Crystal of HIV protease-cleaved human beta secretase and method for crystallization thereof” (Pfizer Inc, priority 2001, dated 2008).
